Tests used:
[1] = target: recombinant human full-length SPARC (R&D Systems) (UniProt P09486)
[2] = target: human SPARC secreted by human mammary fibroblasts (HMFs) (UniProt P09486)
Sequence of human SPARC secreted by human mammary fibroblasts (HMFs) (P09486 18-303): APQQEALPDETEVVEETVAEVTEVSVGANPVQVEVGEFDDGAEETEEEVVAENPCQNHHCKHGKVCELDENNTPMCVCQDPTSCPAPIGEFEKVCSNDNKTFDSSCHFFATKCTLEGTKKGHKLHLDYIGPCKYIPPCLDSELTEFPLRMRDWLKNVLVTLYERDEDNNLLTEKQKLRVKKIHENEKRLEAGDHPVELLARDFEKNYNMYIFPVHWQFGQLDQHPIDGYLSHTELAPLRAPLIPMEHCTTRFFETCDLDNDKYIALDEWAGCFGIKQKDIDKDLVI

Sequence of human cath-D secreted by TNBC cells (MDA-MB-231) (chain, as listed by the source): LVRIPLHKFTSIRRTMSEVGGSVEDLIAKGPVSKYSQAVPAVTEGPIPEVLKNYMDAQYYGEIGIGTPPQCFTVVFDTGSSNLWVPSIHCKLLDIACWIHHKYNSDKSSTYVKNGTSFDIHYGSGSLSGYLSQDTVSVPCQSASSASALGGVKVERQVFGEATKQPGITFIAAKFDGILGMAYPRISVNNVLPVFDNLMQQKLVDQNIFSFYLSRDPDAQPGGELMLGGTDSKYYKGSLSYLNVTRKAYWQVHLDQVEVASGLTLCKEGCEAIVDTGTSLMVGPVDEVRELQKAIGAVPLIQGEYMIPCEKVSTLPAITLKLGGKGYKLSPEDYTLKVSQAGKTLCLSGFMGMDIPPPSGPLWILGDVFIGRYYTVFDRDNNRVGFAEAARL
Sequence of recombinant human full-length SPARC (R&D Systems) (P09486 18-303): as the sequence (P09486 18-303) above
Sequence of auto-activated 51-kDa pseudo-cath-D (recombinant human cathepsin D) (chain, as listed by the source): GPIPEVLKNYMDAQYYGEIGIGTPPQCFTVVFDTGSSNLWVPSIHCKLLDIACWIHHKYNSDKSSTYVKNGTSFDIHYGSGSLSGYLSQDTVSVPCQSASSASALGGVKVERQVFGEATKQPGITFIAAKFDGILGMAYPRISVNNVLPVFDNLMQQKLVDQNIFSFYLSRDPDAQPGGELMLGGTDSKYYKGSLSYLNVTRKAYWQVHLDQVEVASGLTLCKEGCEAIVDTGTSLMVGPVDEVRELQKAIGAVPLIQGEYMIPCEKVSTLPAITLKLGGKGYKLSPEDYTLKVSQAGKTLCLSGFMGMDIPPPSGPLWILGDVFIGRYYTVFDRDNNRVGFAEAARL

## auto-activated 51-kDa pseudo-cath-D (recombinant human cathepsin D)
[1]
  ATOMS ratio (Pseudo-cathD + SPARC - pepst./Pseudo-cath-D + SPARC + pepst), peptide DQHPIDGYLSHTELAPLR [239-256], trypsin: 8.4
  ATOMS ratio (Pseudo-cathD + SPARC - pepst./Pseudo-cath-D + SPARC + pepst), peptide EAGDHPVELLAR [207-218], trypsin: 11.3
  ATOMS ratio (Pseudo-cathD + SPARC - pepst./Pseudo-cath-D + SPARC + pepst), peptide FGQLDQHPIDGYLSHTELAPLR [235-256], trypsin: 10.6
  ATOMS ratio (Pseudo-cathD + SPARC - pepst./Pseudo-cath-D + SPARC + pepst), peptide GQLDQHPIDGYLSHTELAPLR [236-256], trypsin: 2
  ATOMS ratio (Pseudo-cathD + SPARC - pepst./Pseudo-cath-D + SPARC + pepst), peptide PLIPMEHCTTR [258-268], trypsin: 22.5
  ATOMS ratio (Pseudo-cathD + SPARC - pepst./Pseudo-cath-D + SPARC + pepst), peptide QLDQHPIDGYLSHTELAPLR [237-256], trypsin: 3.5
  ATOMS ratio (Pseudo-cathD + SPARC - pepst./Pseudo-cath-D + SPARC + pepst), peptide SHTELAPLR [248-256], trypsin: 2.7
  ATOMS ratio (Pseudo-cathD + SPARC - pepst./Pseudo-cath-D + SPARC + pepst), peptide VTLYERDEDNNLLTEK [176-191], trypsin: 12.1
  ATOMS ratio (Pseudo-cathD + SPARC - pepst./Pseudo-cath-D + SPARC + pepst), peptide YERDEDNNLLTEK [179-191], trypsin: 13.7
  ATOMS ratio (Pseudo-cathD + SPARC - pepst./Pseudo-cath-D + SPARC + pepst), peptide YERDEDNNLLTEKQK [179-193], trypsin: 21.1
  ATOMS ratio (Pseudo-cathD + SPARC - pepst./Pseudo-cath-D + SPARC + pepst), peptide YLSHTELAPLR [246-256], trypsin: 18.8
  SPARC cleavage at pH 5.9, ATOMS and silver staining: SPARC was hydrolysed by the 51-kDa cath-D form exclusively in its extracellular Ca2+ binding domain, releasing five main SPARC fragments (34-, 27, 16, 9-, and 6-kDa) at pH 5.9
  SPARC cleavage, pH dependence (6.8 to 5.5), SDS-PAGE and immunoblot: experiments in which pH was gradually reduced from 6.8 to 5.5 showed progressive limited proteolysis of SPARC at lower pH
  SPARC cleavage, time course at pH 5.9, SDS-PAGE and immunoblot: At pH 5.9, SPARC was hydrolysed by cath-D in a time-dependent manner

## fully-mature cath-D (34+14-kDa) (recombinant human cathepsin D)
[1]
  ATOMS ratio (Mature cath-D + SPARC - pepst./Mature cath-D + SPARC + pepst.), peptide DQHPIDGYLSHTELAPLR [239-256], trypsin: 8.1
  ATOMS ratio (Mature cath-D + SPARC - pepst./Mature cath-D + SPARC + pepst.), peptide DWLKNVLVTLYER [169-181], trypsin: 0.5
  ATOMS ratio (Mature cath-D + SPARC - pepst./Mature cath-D + SPARC + pepst.), peptide EAGDHPVELLAR [207-218], trypsin: 19.3
  ATOMS ratio (Mature cath-D + SPARC - pepst./Mature cath-D + SPARC + pepst.), peptide FGQLDQHPIDGYLSHTELAPLR [235-256], trypsin: 5.9
  ATOMS ratio (Mature cath-D + SPARC - pepst./Mature cath-D + SPARC + pepst.), peptide GQLDQHPIDGYLSHTELAPLR [236-256], trypsin: 2.3
  ATOMS ratio (Mature cath-D + SPARC - pepst./Mature cath-D + SPARC + pepst.), peptide LDSELTEFPLR [156-166], trypsin: 0.4
  ATOMS ratio (Mature cath-D + SPARC - pepst./Mature cath-D + SPARC + pepst.), peptide LSHTELAPLR [247-256], trypsin: 2.4
  ATOMS ratio (Mature cath-D + SPARC - pepst./Mature cath-D + SPARC + pepst.), peptide PLIPMEHCTTR [258-268], trypsin: 4.3
  ATOMS ratio (Mature cath-D + SPARC - pepst./Mature cath-D + SPARC + pepst.), peptide PVHWQFGQLDQHPIDGYLSHTELAPLR [230-256], trypsin: 5.6
  ATOMS ratio (Mature cath-D + SPARC - pepst./Mature cath-D + SPARC + pepst.), peptide QLDQHPIDGYLSHTELAPLR [237-256], trypsin: 2.2
  ATOMS ratio (Mature cath-D + SPARC - pepst./Mature cath-D + SPARC + pepst.), peptide SHTELAPLR [248-256], trypsin: 1.6
  ATOMS ratio (Mature cath-D + SPARC - pepst./Mature cath-D + SPARC + pepst.), peptide VTLYERDEDNNLLTEK [176-191], trypsin: 14.3
  ATOMS ratio (Mature cath-D + SPARC - pepst./Mature cath-D + SPARC + pepst.), peptide WQFGQLDQHPIDGYLSHTELAPLR [233-256], trypsin: 3.1
  ATOMS ratio (Mature cath-D + SPARC - pepst./Mature cath-D + SPARC + pepst.), peptide YERDEDNNLLTEK [179-191], trypsin: 11.8
  ATOMS ratio (Mature cath-D + SPARC - pepst./Mature cath-D + SPARC + pepst.), peptide YERDEDNNLLTEKQK [179-193], trypsin: 16.8
  ATOMS ratio (Mature cath-D + SPARC - pepst./Mature cath-D + SPARC + pepst.), peptide YLSHTELAPLR [246-256], trypsin: 5.7
  SPARC cleavage at pH 5.9, ATOMS and silver staining: We detected SPARC cleavage fragments of similar size also after incubation with the fully mature 34+14-kDa cath-D form at pH 5.9

## human cath-D secreted by TNBC cells (MDA-MB-231)
[2]
  SPARC cleavage in MDA-MB-231/HMF conditioned medium at pH 5.5, immunoblot: SPARC was hydrolysed in a time-dependent manner in the conditioned medium at pH 5.5
  SPARC cleavage in MDA-MB-231/HMF conditioned medium at pH 6.8 to 5.5, immunoblot: in the MDA-MB-231/HMF conditioned medium, SPARC was significantly degraded up to pH 6.2
  TAILS ratio (CM - pepst./CM + pepst.), peptide DQHPIDGYLSHTELAPLR [239-256], trypsin: 7.6
  TAILS ratio (CM - pepst./CM + pepst.), peptide EAGDHPVELLAR [207-218], trypsin: 3.4
  TAILS ratio (CM - pepst./CM + pepst.), peptide GQLDQHPIDGYLSHTELAPLR [236-256], trypsin: 12.4
  TAILS ratio (CM - pepst./CM + pepst.), peptide PLIPMEHCTTR [258-268], trypsin: 5.9
  TAILS ratio (CM - pepst./CM + pepst.), peptide QLDQHPIDGYLSHTELAPLR [237-256], trypsin: 15.1
  TAILS ratio (CM - pepst./CM + pepst.), peptide YLSHTELAPLR [246-256], trypsin: 4.4
